The values that follow come from publication doi:10.1101/2021.07.15.452465 (2021).

Where two headings read alike, the source gives them in different places.

First the molecules themselves.
B1: A. fumigatus CBC consisting of the subunits HapB^230-299, HapC^40-137 and HapE^47-164 (complex)
chain 1: not shown
chain 2: KEQDRWLPIANVARIMKLALPENAKIAKEAKECMQECVSEFISFITSEASEKCQQEKRKTVNGEDILFAMTSLGFENYAEALKIYLSKYRETQSARGE
chain 3: GTWANVNQGLQGTARDILTTYWQHIINHLESDNHDYKIHQLPLARIKKVMKADPEVKMISAEAPILFAKGCDIFITELTMRAWIHAEDNKRRTLQRSDIAAALSKSDMFDFLIDIVPR

The target of assay [1] is A. fumigatus HapX^24-158 R45A (Aspergillus fumigatus, UniProt Q4WER3 24-158, R45A). Nature of the assay: SPR; CBC preformed on AfucccA 37 bp DNA.
Assay [2] deals with A. fumigatus HapX^24-158 K38E (Aspergillus fumigatus, UniProt Q4WER3 24-158, K38E). Nature of the assay: SPR; CBC preformed on AfucccA 37 bp DNA.
In assay [3] the target is T1, A. fumigatus HapX^24-158 ΔT36-I42 (Aspergillus fumigatus, UniProt Q4WER3 24-158, ΔT36-I42). Description: SPR; CBC preformed on AfucccA 37 bp DNA.
Assay [4] concerns the target A. fumigatus HapX^24-158 R50A (Aspergillus fumigatus, UniProt Q4WER3 24-158, R50A). Description: SPR; CBC preformed on AfucccA 37 bp DNA.
Assay [5] addresses T1, A. fumigatus HapX^24-158 ΔT36-I42. Description: SPR; CBC preformed on Afucyp51A 37 bp DNA.
In assay [6] the target is A. fumigatus HapX^24-158 W40A (Aspergillus fumigatus, UniProt Q4WER3 24-158, W40A). Description: SPR; CBC preformed on AfucccA 37 bp DNA.
In assay [7] the target is B1. Nature of the assay: SPR.
For assay [8], the target named is B1. Description: SPR. This is another data set of the same source.
In assay [9] the target is B1. Nature of the assay: SPR. The source holds these as a separate data set.
For assay [10], the target named is B1. Description: SPR. This is another data set of the same source.

For B1, the dissociation constant (Kd) in assay [1] was determined as 2.86 nM; in assay [2], 3.76 nM; in assay [3] it was 136 nM; in assay [4] it was 3.93 nM; in assay [5], 511 nM; in assay [6] it was 13.2 nM.

B2: A. fumigatus HapX^24-158 wild type (domain or fragment)
chain: SPSPGPGTPGSITSKEWVIPPRPKPGRKPATDTPPTKRKAQNRAAQRAFRERRAARVNELEEQIKKIEDEHEIHIAAFKEQITNLSREVEQCRSEMTWWRDRCHALEKEVSVERSAKEAIVKEFRSSLSDREAVR
B2: the Kd in assay [7] was found to be 22.7 nM; in [8], 0.34 nM; in [9], 0.9 nM; in assay [10], 28.3 nM.
